What is called Kd is the concentration at which binding is half-saturated. A higher Kd goes with lower affinity.

Kd data for two molecules are collected here from article PMC7573786 (Chemical communications (Cambridge, England), 2020).

Assay [1] concerns the target CBX1 chromodomain Y26AzF/F50AzF (UniProt P83916 20-73, Y26AzF, 4-azido-L-phenylalanine (AzF) at 26 and at 50). The experiment in a line: fluorescence polarisation.
The target in assay [2] is CBX1 chromodomain Y26AzF/D54AzF (UniProt P83916 20-73, Y26AzF, 4-azido-L-phenylalanine (AzF) at 26 and at 54). The experiment in a line: fluorescence polarisation. A general note: In fluorescence polarisation assays a small probe gives low polarisation when free and higher when bound to something large.
Assay [3] deals with T1, wild type chromodomain of CBX1 (Chromobox protein 1) (UniProt P83916 20-73). As to the kind of experiment: fluorescence polarisation.
Assay [4] concerns the target T1, wild type chromodomain of CBX1 …. As to the kind of experiment: ITC.

Consider ARTKQTARKSTGGKA (trimethyllysine at K9; tetramethyl rhodamine (TAMRA) at the N-terminus) [TAMRA-H3K9me3 tracer peptide 2], for which the Kd in assay [1] worked out at 48.9 ± 8.7 µM; in assay [2], 50.8 ± 5.7 µM; in assay [3] it was 1.7 ± 0.2 µM.

ARTKQTARKSTGGKA (trimethyllysine at K9) [H3K9me3 peptide 3 (non-TAMRA)] showed a Kd in assay [4] of 5.3 ± 0.4 µM.
